Experimental data as given in the nanobody polyreactivity screen of Harvey et al. (2022).

Assay: yeast display, Sf9 membrane polyspecificity reagent, FACS + sequencing; frameworks hold sequencing errors
Outline: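 In a synthetic yeast display library (Saccharomyces cerevisiae BJ5465), nanobody expression was induced with galactose for 36–48 hours. FACS gates were set low and high (top ~1%) using anti-HA fluorescence for expression and streptavidin fluorescence for binding of the Sf9 membrane reagent. Each polyreactivity label is drawn from the gate of origin.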

In the case of “QVQLVESGGGLVQAGGSLRLSCAASGSIFGLYAMGWYRQAPGKERELVAAINWNGGDTYYADSVKGRFTISRDYAKNTVYLQMNSLKPEDTAVYYCAAEQYRYGIRRRHYDYWGQGTEVTVSS”, the “polyreactivity (PSR sort gate)” value is reported as “low polyreactivity”.
In the case of “QVQLVESGGGLVQAGGSLRLSCAASGSIFPTNTMGWYRQAPGKERELVASINSDGSTNYADSVKGSFTISRDNAKNTVYLQMNSLKPEDTAVYYWAADTQGSEYEFWGQGTQVTVSS”, the “polyreactivity (PSR sort gate)” value is reported as “low polyreactivity”.
In the case of “QVQLVESGGGLVQARGSLRLSCAASGSIFHHYAMGWYRQAPGKDTELVAAISKSGGSTYYADSVKGRFTISRDNAKNTVYLQMNSLKPEDTAVYYCNAEVFWWDLWYDYWGQGTKVTVSS”, the “polyreactivity (PSR sort gate)” value is reported as “high polyreactivity”.
With “QVQLVESGGGLVQAGGSLRLSCAASGSNFSRYAMGWYTQAPGKERELVAAISKSGGSTYYADSVKGRFTISRDNAKNTVYLEMNSLIPEDTAVYYCNARDSPVQRRAEPYGYWGQGTQVTVSS” the “polyreactivity (PSR sort gate)” value was “high polyreactivity”.
With “QVQLVESGGGLVQAGGSLRLSCAASGSTCVYYPMGWYRQAPGKERELVAAIRGRDGNTYYADSVKGRFTISRDNAQNTVYLQMNSLKPEDSAVYSSAATRRNQLYGVAYRYDYWGQGTQVTVSS” the “polyreactivity (PSR sort gate)” value was “high polyreactivity”.
For “QVQLVESCGGLVQAGGSLRLSCAASGSTFTPNAMGWNRQAPGKERELVAAIRGLNGRTYYADSVKGRFTISRDNAKNTVYLQMNSLKPEDTAVYYCAAGGYSYYFAWHDYWGQGTQVTVSS”, the “polyreactivity (PSR sort gate)” value was “low polyreactivity”.
With “QVQLVESGGGLVQAGGSLRLSCAASGRIFRTYAMGWYRQAPGKERELVDAISYSGGSTFYADSVKRRFTISRDNAKNTVYLQMNSLKPEYTAVYYCAADSRAKRYYWGQGTQVTVSS” the “polyreactivity (PSR sort gate)” value was “high polyreactivity”.
For “QVQLVESGGGLVQAGGSLRLSCAASGSTFLKYTMGWYRQAPRKDRELVAGITRSSRSTYYADSVKGRFTISRDNAKYTVYLQMNSLKPEDTAVYYCAATVYLYTDLAYYWFGYWGQGTQVTVAS”, the “polyreactivity (PSR sort gate)” value was “high polyreactivity”.
In the case of “QVQLVESGGGLVQAGGSLRLSCAASGSIFGYNAMGWYRQAPGKERELVAAISYSGGRTYYADSVKGRFTISRDNAKNTVYLQMNSLKPEDTAVYYCAKYKVGYVPSGYRYDSWGQGTQVTVSS”, the “polyreactivity (PSR sort gate)” value is reported as “high polyreactivity”.
With “IIQAGGSLRLSCAASGRTLSGYAMGWYRQAPGKERELIADITSGGSTYYADSVKGRFTISRDNAKNTVYLQMNSLKPEDTAVYYCAAERQIRSFWSSRTYEFGYWGQGTQVTVSS” the “polyreactivity (PSR sort gate)” value was “low polyreactivity”.
With “QVQLVESGGGLVQAGGSLRLSCAASGAIFGAITMGWYREAPGKERELVAAISKRGGSTYYADSVKGRFTSSRDNAKNTVYLQMNSLKPEDTAVYYCNATPRYLRQYVDPNWGYDYWGQGTQVTVSS” the “polyreactivity (PSR sort gate)” value was “low polyreactivity”.
With “QVKLVESGGGLVQAGGSLRLSCAASVRIFALNTMGWYREAPGKERELDAAISYRGGSTYYADSVKGRFTISRDNAKTTVYLQMNSLKPEDTAVYYCAARCYSYSRRYGYDYWGQGTQVTVSS” the “polyreactivity (PSR sort gate)” value was “high polyreactivity”.
In the case of “HEQLQESGGGLVQAVGSLRLSCAASGHISRSSTMGWYRQAPGKERELVTAITRGTNTNYADSVKGRFTISRDNAKNSEYLQMNSLKPEDTAVYYCAAYGVLKPSRGDAVFHRYWGQGTQVTVSR”, the “polyreactivity (PSR sort gate)” value is reported as “low polyreactivity”.
In the case of “QVQLVESGGGLVQAGGSLRLSCAASGFTFVINDMGWYRQAPGKERELVADITSGGDTYYADSVKGRFTISRDNAKNTVYLQLNSLKPEDTAVYYCAADIYPDWIYLLYGYWGQGTQVTVSS”, the “polyreactivity (PSR sort gate)” value is reported as “low polyreactivity”.
With “QVQLVESGGGLVQAGGSLRLSCAASGSIFYAYAMGWYRQAPGKERELVAGINTRGGSTYYADSVKGRFTISRDNAKNTVYLQMNSLKPEDTAVYYCNARTLTVLEFDYWGQGTQVTVSS” the “polyreactivity (PSR sort gate)” value was “low polyreactivity”.
With “QVQLVESGGGLVQAGGSLRLSCAASGFTLWLNAMGWYRQAPGKERELVAAITTSDDGTYYADSVKGRFTISRDNAKNSVYLQMNSLKPEDTAVYYCAADYYSVLYDYWGQGTQVTVSS” the “polyreactivity (PSR sort gate)” value was “low polyreactivity”.
For “QVQLVESGGGLVQAGGSLRLSCAASGSIFFYYAMGWYRQAPGKERELVAAINWTGGRTYYADSVKGRFTISRDNAKNTVYLQMNSLKPEDTAVYYWAAEYYGQHDTYEYWGQGTQVTVSS”, the “polyreactivity (PSR sort gate)” value was “high polyreactivity”.
For “EEQLVESGGGLVQPGGSLRLSCAASVYIYSRYRMGWYRQAPGKGREFVAAISGGSSPNYADCVKGRFTISRDNSKNTVYLQMNSLRAEDTAVYYCAAYKIDSDPRVYWGQGTQVTVSS”, the “polyreactivity (PSR sort gate)” value was “low polyreactivity”.
With “QVQLVESGGGLVQAGGSLRLSCAASGRIFDRYAMGWYRLAPGKERELVAAITTSSGGSTYYADSVKGRFTISRDNAMNTVYLQMQSLNPEDTAVYYCAADRRYNVIGEFGYWGQVTQVTVSS” the “polyreactivity (PSR sort gate)” value was “low polyreactivity”.
In the case of “QVQLVESGVGLVQAGGSLRLSCAASGIIFDDYAMGWYRQAPGKERELVAGINESGDSTYYADSVKGRFTISRDNAKNTVYLQMNSLKPEDTAVYYCAAQLYYWWYDYWGQGTQVTVSS”, the “polyreactivity (PSR sort gate)” value is reported as “high polyreactivity”.
In the case of “QVQLVESGGGLGQAGGSLRLSCAASGRIFFHYAMGWYRPAPGKERELVATITTVGSTYYADSVKGRFTISRDNAKNTVYLQMNSLKPEDTAVYYCAARYISLSGDEYDYWGQGTQVTVSS”, the “polyreactivity (PSR sort gate)” value is reported as “low polyreactivity”.
With “QVQLVESGGGLVQAGGSLRLSCAASGSTFYQYVMGWYRQAPGKERELVAAISGSGGSTYYADSVKGRFTISRDNAKNTVYLQMNSLKPEDTAVYYCAAVGRSKRDGYWGQGTQVTVSS” the “polyreactivity (PSR sort gate)” value was “high polyreactivity”.
With “QVQLVESGGGLVQAGGSLRLSCAASGRTFVPYAMGWYRQAPGKERELVATITSAGSTYYADSVKGRFTISRDNAKNTVYLQMNSLKPEDTAVYYCNARYYSRRWPYDYWGQGTQVTVSS” the “polyreactivity (PSR sort gate)” value was “high polyreactivity”.
With “QVQLVESGGGLVQAGGSLRLSCDASGIFVGYTLGWYRQAPRKERELVAAIRWTDGSTYYADSVKGRFTISRDNAKNTVYLQRNSLNPEDTAVYDCGADSNDPARYYYGDEFEDEYWGQGTQVTVSS” the “polyreactivity (PSR sort gate)” value was “low polyreactivity”.
With “QVQLVESGGGLVQAGGSLRLSCAASGRTSGFNTMGWYRPAPGKEREMVAAISFSGGSTYYADSVKGRFTISRDNAKNTVYLQMNSLKPEDTAVYYCNALYRYLYRSGDYWGQGTQVTVSS” the “polyreactivity (PSR sort gate)” value was “low polyreactivity”.
For “QVQLVESGGGLVQAGGSLRLSCAASGRIFNRYAMGWYRQAPGKERELVAAISASGDNTYYADSVKGRFTISRDNAKKNVYLQMNSLKPEDTAVYYCAARYYTYLHFRMYYWGQGTQVTVSS”, the “polyreactivity (PSR sort gate)” value was “high polyreactivity”.
In the case of “QVQLVESGGGLVQAGGSLRLSCAASGTIYDGYAMGWYRQAPGKERELVAAINTSGGTTYYADSENGRFTISRDKAKNNGYLQMNSLKPEETAVYYCNAHNHLPPYDYWGQGSQVTVSS”, the “polyreactivity (PSR sort gate)” value is reported as “low polyreactivity”.
For “QVQLVESGGGLVQAGGSLRLSCAASGSIFQDYAMGWYRQAPGKERELVAAITSDGSTYYADSVKGRFTISRDNAKNTVYLQMNSLKPEDTAVYYCATDKLYGRTVRMDYWGQGTQVTVSS”, the “polyreactivity (PSR sort gate)” value was “low polyreactivity”.
In the case of “QVQLVESGGGLVQAGGSLRLSCAASGSNFGPYAMGWYRQAPGKERELVAAISYSSVRTYYADSVKGRFTISRDNAKNTVYLQMNSLKPEVTAVYYCNAYFRYAYPSKMDYWGQGTQVTVSS”, the “polyreactivity (PSR sort gate)” value is reported as “low polyreactivity”.
For “QVQLVESGGGLVQAGGSLRLSCAASGFTFFRYAMGWYRQAPGKERELVASITSGGSTNYADSVKGRFTISRDNAKNTVYLQMNSLKPEDTAVYYCAAGSSFFRWVYEATGFYYWGQGTQVTVSS”, the “polyreactivity (PSR sort gate)” value was “high polyreactivity”.
For “QVQLVESGGGLVQAGGSLRLSCAASGSILGYYVMGWYRQAPGKERELVAAISWSSGSTYYADSVKGRFTISRDNAKNTVYLQMNSLKPEDTAVYYCNAGGVYDEFNYWGQGTQVTVSS”, the “polyreactivity (PSR sort gate)” value was “low polyreactivity”.
In the case of “QVQLVESGGGLVQAGGSLRLSSAASGFTFVRYTMGWYRQAPGKERELVAVIRRGGSTYYADSVKGRFTISRDNAKNTVYLQMNSLKPEDTAVYYCNALSALAVEDGYWGLGTQVTVSS”, the “polyreactivity (PSR sort gate)” value is reported as “low polyreactivity”.
For “QVQLVESGGGLVQAGGSLRLSCAASGRIFGVNAMGWYRQAPGKERELVADISSGGSTYYADSVKGRFTISRDNAKNTVNLQMNSLTPEYTAVYYCAVDKSVYVSYSFYFEYDYWGQGTQVTVSS”, the “polyreactivity (PSR sort gate)” value was “low polyreactivity”.
In the case of “QVQHEESGGGLVQAGGSLRLSCASSGLIFKFSAMGWYRQAPGKERELVAAITSRGGSTYYADSVKGRFTISRDNAKNTVYFQMNSLKPEDTEVYYCAADVRTQHYNAQYDYWGQGTQVTVSA”, the “polyreactivity (PSR sort gate)” value is reported as “high polyreactivity”.
In the case of “QVQLVESGGGLVQAGGSLRLSCAASGFTFTYYAMGWYRQAPGKERELVAAITKSGGSTYYADSVKGRFTISRDNAKNTVYFQMNSLKPEDTAVYYCAADTRYGRERYYWGQGTQVTVSS”, the “polyreactivity (PSR sort gate)” value is reported as “high polyreactivity”.
With “QVQLVESGGGLVQAGGSLRLSCAASGRIFGYNAMGWYRQAPGKERDLVAAITTSGGSTYYADSVKGRFTISRDNAKNTVYLQMNSLKPEDTAVYYCARDSLQVFYPYASDDYWGQGTQVTVSS” the “polyreactivity (PSR sort gate)” value was “low polyreactivity”.
For “QVQLVESGGGLVQAGGSLRLSCAASGRTFRRYAMGWYRQAPGKERELVAAISRSGGSTYYADSVKGRFTISRDNAKNTVYLQMNSLKPEETAVYYCAAGIWSKLVEPFDYWGQGTQVTVSS”, the “polyreactivity (PSR sort gate)” value was “high polyreactivity”.
In the case of “QVQLVESGGGLDQAGGSLRLSCAASGRISGYYDMVWYRQAPGKERELVATITSDGGTNYADSVKGRFTISRDNAKNCVYLQINSLKPEDTAVYYCAAYGWYTKWHFAYGYWGQGTQVTVSS”, the “polyreactivity (PSR sort gate)” value is reported as “low polyreactivity”.
For “EEELVESGGGLVQAGGSSLRLSCAASGFIFVSNAMGWYRQAPGKERELVASIRWSDGSTFDADSVKGRFTNSRDNAKNTVYLQMNSLKPEDTAVYYCNAVYEHRRVGWVTIDYGYWGQGTQVTVSA”, the “polyreactivity (PSR sort gate)” value was “low polyreactivity”.
With “QVQLVESGGGLVQAGGSLRLSCAASGNIFGWYAMGWYRQAPGKERELVAAISSGGRTNYADSVKGRFTISRDNAKNTVYLQMNSLKPEETAVYYCAVGLHKRPPPPRFRQFNYWGQGTQVTVSS” the “polyreactivity (PSR sort gate)” value was “low polyreactivity”.
In the case of “QVQHVESGGGLVQAGGSQRLSCAASGSIFDYYAMGWYRQAPGKERELVAAISTSTSSTYYADSVKGRFTISRDNAKNTVYLQLNSLKPEDTAVYYCAAVGESQPEYPGYDYWGQGTQVTVSS”, the “polyreactivity (PSR sort gate)” value is reported as “low polyreactivity”.
With “QVQLVESGGGLVQAGGSLRLTCAASGYTFNYYAKGWYRQAPGKERELVAAIDWSDGTTYYADSVKGRFTISPDYAKNTVYLQMNSLKPEDTAVYYCAASLSQSEYDYWGQGTLVTVSS” the “polyreactivity (PSR sort gate)” value was “low polyreactivity”.
With “QVQLVESGGGLVQAGGSLRLSCAASGRTFVFYAMGWYRPAPGKERELVADITWSDGNTYYADSVKGRFTISRDNAKNSVYLQMKSLKPEDTAVYYCAKVRTGQSRSVGYDYWGQGTQVTGSS” the “polyreactivity (PSR sort gate)” value was “low polyreactivity”.
